Data taken from publication PMC4484435, “Leucine-rich α-2-glycoprotein promotes TGFβ1-mediated growth suppression in the Lewis lung carcinoma cell lines” (Oncotarget, 2015).

Molecular target: T1, transforming growth factor beta 1 (UniProt P01137 279-390)
T1 construct: Transforming growth factor beta 1 (TGFβ1), the mature growth factor cut from its precursor; The source of the TGFβ1 is told only for the cell assays (PeproTech); also called TGFβ1; TGFβ; source: bought: PeproTech (cell assays)
Experiment: SPR; BIAcore 3000; which partner was immobilised and the conditions are not given
Conditions: both partners purified

T1 sequence (P01137 279-390): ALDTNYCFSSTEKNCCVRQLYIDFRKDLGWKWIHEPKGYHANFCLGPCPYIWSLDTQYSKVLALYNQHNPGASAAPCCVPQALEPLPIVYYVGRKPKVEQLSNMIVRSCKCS

B1: Leucine-rich α2-glycoprotein (natural protein)
chain: LKECLILQSAEGSTVSCHGPTEFPSSLPADTVHLSVEFSNLTQLPAAALQGCPGLRELHLSSNRLQALSPELLAPVPRLRALDLTRNALRSLPPGLFSTSANLSTLVLRENQLREVSAQWLQGLDALGHLDLAENQLSSLPSGLLASLGALHTLDLGYNLLESLPEGLLRGPRRLQRLHLEGNRLQRLEDSLLAPQPFLRVLFLNDNQLVGVATGSFQGLQHLDMLDLSNNSLSSTPPGLWAFLGRPTRDMQDGFDISHNPWICDKNLADLCRWLVANRNKMFSQNDTRCAGPEAMKGQRLLDVAELGSL
B1 gave a Kd of 2320 nM.
